{"source": "patent US20240317884A1", "about": "“METHOD FOR ALLOWING IMMUNE CELLS INFILTRATION IN TUMORS” (Alethia Biotherapeutics Inc., priority 2021, published 2024)", "key": {"sCLU": {"target": "T1, sCLU (Macaca mulatta, UniProt F6S885)", "T1 construct": "from tissue; host or cells: serum of Rhesus monkeys dosed with AB-16B5", "T1 sequence (F6S885 22-448)": "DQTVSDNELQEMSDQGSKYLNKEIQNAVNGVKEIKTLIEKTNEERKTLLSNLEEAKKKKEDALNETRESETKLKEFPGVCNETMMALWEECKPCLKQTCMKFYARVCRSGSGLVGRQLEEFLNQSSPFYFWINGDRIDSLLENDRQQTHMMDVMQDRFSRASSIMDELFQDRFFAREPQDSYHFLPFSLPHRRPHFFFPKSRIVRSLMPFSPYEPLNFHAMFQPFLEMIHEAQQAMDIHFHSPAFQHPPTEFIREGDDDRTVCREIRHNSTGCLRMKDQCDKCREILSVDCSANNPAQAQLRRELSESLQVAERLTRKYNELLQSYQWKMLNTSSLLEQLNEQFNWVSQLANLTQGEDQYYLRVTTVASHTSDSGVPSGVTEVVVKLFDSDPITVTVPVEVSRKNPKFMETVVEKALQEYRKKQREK", "assay": "sCLU serum concentrations after single dose of AB-16B5", "type": "in vivo", "conditions": "Rhesus monkeys", "description": "There was an approximate 70% increase in systemic exposure following repeated dosing from Day 1 to Day 26 which is consistent with the elimination half-life of AB-16B5 and the dosing intervals. […] The sCLU concentrations were generally back to their baseline levels after 3 to 5 days. The concurrent decrease in sCLU concentrations immediately following dosing with AB-16B5 is consistent with an antigen-sink phenomenon."}, "[1]": {"assay": "Phase I study AB-16B5-101: safety profile", "type": "in vivo, human"}, "E-cadherin, vimentin": {"system": "E-cadherin, vimentin", "assay": "Phase I: immunohistochemistry on paired tumor biopsies (epithelial phenotype)", "type": "in vivo, human", "method": "Immunohistochemistry studies were conducted on paired tumor biopsies to determine if the treatment with AB-16B5 was associated with a reacquisition of an epithelial phenotype."}, "[2]": {"system": "CA 15-3, CA-125, CA 19-9, CEA, LDH and PSA", "assay": "Phase I: circulating tumor biomarkers", "type": "in vivo, human", "method": "Several well-established circulating biomarkers were evaluated to monitor the response to therapy. They included CA 15-3, CA-125, CA 19-9, CEA, LDH and PSA."}}, "note": "Values joined by “and” are separate entries in the source; they are usually repeats but may differ in a detail not shown here. Identical values can stand only once. “Also recorded” adds a separate entry of the source.", "data": [{"substance": "AB-16B5: humanized IgG2 monoclonal antibody targeting sCLU; light chain SEQ ID NO:11, heavy chain SEQ ID NO:12", "values": [{"measurement": "sCLU serum concentrations following dosing", "setting": "sCLU", "value": "decreased significantly"}, {"measurement": "subjects reporting SAEs", "setting": "[1]; 5 of 15 subjects, all SAEs considered unrelated to AB-16B5", "value": 33, "unit": "%"}, {"measurement": "AEs reported, total", "setting": "[1]; 15 subjects, all causalities", "value": 167}, {"measurement": "dose at which weekly infusion was safe and well tolerated", "setting": "[1]; 60-minute IV weekly infusion", "value": "up to 12 mg/kg"}, {"measurement": "dose-limiting toxicity", "setting": "[1]; 60-minute IV weekly infusion, 1.5 to 12.0 mg/kg, 15 subjects", "value": "No dose-limiting toxicity; also recorded: No dose-limiting toxicities"}, {"measurement": "deaths reported in the study", "setting": "[1]; Subjects 004 and 014, associated with progression of the disease", "value": "Two"}, {"measurement": "number of SAEs", "setting": "[1]; all considered unrelated to AB-16B5", "value": "6 and 5"}, {"measurement": "AEs of Grade 3 to 5", "setting": "[1]; reported by 8 subjects", "value": 12}, {"measurement": "subjects who discontinued the study due to an adverse event", "setting": "[1]; two subjects (004, 011)", "value": 13, "unit": "%"}, {"measurement": "E-cadherin Expression in Post-Treatment", "setting": "E-cadherin, vimentin; Subject 006, Breast, biopsy site Skin, 9.0 mg/kg", "value": "Increase"}, {"measurement": "E-cadherin Expression in Post-Treatment", "setting": "E-cadherin, vimentin; Subject 007, Gastric, biopsy site Gastric, 9.0 mg/kg", "value": "Increase"}, {"measurement": "vimentin expression after treatment", "setting": "E-cadherin, vimentin; Subject 007, advanced gastric cancer, paired tumor biopsies", "value": "loss of vimentin expression"}, {"measurement": "E-cadherin Expression in Post-Treatment", "setting": "E-cadherin, vimentin; Subject 012, Breast, biopsy site Skin, 12.0 mg/kg", "value": "Decrease"}, {"measurement": "E-cadherin Expression in Post-Treatment", "setting": "E-cadherin, vimentin; Subject 013, Prostate, biopsy site Bladder, 12.0 mg/kg", "value": "did not change; also recorded: No change"}, {"measurement": "tumor biomarker levels over time", "setting": "[2]; CA 15-3, CA-125, CA 19-9, CEA, LDH and PSA, correlated with disease progression", "value": "increased over time"}, {"measurement": "level of CEA", "setting": "[2]; in few patients", "value": "remained stable or decreased"}]}]}
